The values that follow come from the supplement of paper PMC9112550, “Optimization of the antimicrobial peptide Bac7 by deep mutational scanning” (BMC Biology, 2022).

In the series the test system is Escherichia coli TOP10. Description: shrunken log2 fold change of peptide-encoding DNA abundance (4.5 h post-induction vs induction); higher = less antimicrobial activity (less host growth inhibition). The note with it: time post-induction: 4.5 h; library: site-saturation at positions 5, 18, 19, 20.
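Further: peptides expressed intracellularly from a pBAD plasmid library in pooled LB shake-flask culture, induced with 0.3% L-arabinose, DNA abundance read by NGS, three biological replicates, DESeq2 with apeglm shrinkage.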

With RRIRNRPPRLPRPRPRPRNLPRP, the “shrunken log2 fold change” value was -0.0378.

As to RRIRTRPPRLPRPRPRPWRHPRP, the “shrunken log2 fold change” value was -0.0184.

Turning to RRIRVRPPRLPRPRPRPYPEPRP, the “shrunken log2 fold change” value was determined as 1.13.

For the sequence RRIRTRPPRLPRPRPRPPFLPRP, the “shrunken log2 fold change” value came to 0.207.

On to RRIRCRPPRLPRPRPRPAPVPRP, for which the “shrunken log2 fold change” value came to 0.56.

Take RRIRTRPPRLPRPRPRPIGMPRP: the “shrunken log2 fold change” value is 0.0258.

As to RRIRSRPPRLPRPRPRPPPYPRP, the “shrunken log2 fold change” value came out at 0.337.

Consider RRIRVRPPRLPRPRPRPIYWPRP, for which the “shrunken log2 fold change” value is -0.0757.

Consider RRIRSRPPRLPRPRPRPFKDPRP, for which the “shrunken log2 fold change” value is -0.11.

RRIRSRPPRLPRPRPRPSHCPRP: the “shrunken log2 fold change” value came to 0.079.

Consider RRIRQRPPRLPRPRPRPLYEPRP, for which the “shrunken log2 fold change” value was -0.671.

RRIRHRPPRLPRPRPRPHAAPRP: the “shrunken log2 fold change” value amounted to 0.292.

Turning to RRIRPRPPRLPRPRPRPPDSPRP, the “shrunken log2 fold change” value is 0.326.

Turning to RRIRDRPPRLPRPRPRPTFVPRP, the “shrunken log2 fold change” value came out at 0.177.

Take RRIRYRPPRLPRPRPRPSYSPRP: the “shrunken log2 fold change” value was -0.438.

Take RRIRTRPPRLPRPRPRPVGVPRP: the “shrunken log2 fold change” value was 0.234.

Turning to RRIRMRPPRLPRPRPRPHEEPRP, the “shrunken log2 fold change” value came out at 0.053.

For RRIRTRPPRLPRPRPRPLGTPRP, the “shrunken log2 fold change” value is -0.145.

Turning to RRIRQRPPRLPRPRPRPLWRPRP, the “shrunken log2 fold change” value was 3.25.

On to RRIRDRPPRLPRPRPRPRGTPRP, for which the “shrunken log2 fold change” value was -0.217.

Consider RRIRYRPPRLPRPRPRPTYSPRP, for which the “shrunken log2 fold change” value is -0.443.

RRIRMRPPRLPRPRPRPDAIPRP: the “shrunken log2 fold change” value was found to be 0.164.

RRIRYRPPRLPRPRPRPATCPRP: the “shrunken log2 fold change” value worked out at 0.0415.

On to RRIRNRPPRLPRPRPRPPEMPRP, for which the “shrunken log2 fold change” value was found to be 0.0979.

For the sequence RRIRLRPPRLPRPRPRPNTIPRP, the “shrunken log2 fold change” value is -0.796.

Consider RRIRERPPRLPRPRPRPWCYPRP, for which the “shrunken log2 fold change” value was -0.947.

For RRIRHRPPRLPRPRPRPYEYPRP, the “shrunken log2 fold change” value was -0.4.

Turning to RRIRNRPPRLPRPRPRPEENPRP, the “shrunken log2 fold change” value is -0.00776.

As for RRIRARPPRLPRPRPRPGYMPRP, the “shrunken log2 fold change” value is -0.21.

RRIRIRPPRLPRPRPRPTEDPRP: the “shrunken log2 fold change” value was determined as 0.267.

For the sequence RRIRPRPPRLPRPRPRPRRQPRP, the “shrunken log2 fold change” value came to 0.673.

RRIRGRPPRLPRPRPRPLSYPRP: the “shrunken log2 fold change” value was determined as 0.00315.

Turning to RRIRMRPPRLPRPRPRPLGKPRP, the “shrunken log2 fold change” value was found to be 0.0958.

As for RRIRVRPPRLPRPRPRPTNGPRP, the “shrunken log2 fold change” value is 0.239.

As to RRIRWRPPRLPRPRPRPSKYPRP, the “shrunken log2 fold change” value is -0.632.

Turning to RRIRARPPRLPRPRPRPMLAPRP, the “shrunken log2 fold change” value amounted to 0.881.

In the case of RRIRWRPPRLPRPRPRPHGIPRP, the “shrunken log2 fold change” value was found to be 0.00741.

Take RRIRRRPPRLPRPRPRPHMKPRP: the “shrunken log2 fold change” value is -0.654.

Take RRIRSRPPRLPRPRPRPERMPRP: the “shrunken log2 fold change” value amounted to 0.263.

Turning to RRIRPRPPRLPRPRPRPQMLPRP, the “shrunken log2 fold change” value was 0.0602.

Turning to RRIRERPPRLPRPRPRPWGNPRP, the “shrunken log2 fold change” value is -0.377.

Turning to RRIRYRPPRLPRPRPRPIIMPRP, the “shrunken log2 fold change” value is -0.0214.

Turning to RRIRLRPPRLPRPRPRPWYNPRP, the “shrunken log2 fold change” value was found to be 0.111.

Turning to RRIRCRPPRLPRPRPRPGFMPRP, the “shrunken log2 fold change” value was -0.429.

Turning to RRIRPRPPRLPRPRPRPPVKPRP, the “shrunken log2 fold change” value is 0.172.

On to RRIRMRPPRLPRPRPRPVNYPRP, for which the “shrunken log2 fold change” value was -0.0244.

As to RRIRARPPRLPRPRPRPVWLPRP, the “shrunken log2 fold change” value turned out to be 0.399.

In the case of RRIRMRPPRLPRPRPRPYCYPRP, the “shrunken log2 fold change” value was -0.13.

As for RRIRERPPRLPRPRPRPFWDPRP, the “shrunken log2 fold change” value worked out at 0.029.

For the sequence RRIRKRPPRLPRPRPRPYNKPRP, the “shrunken log2 fold change” value was -0.626.

Turning to RRIRMRPPRLPRPRPRPKGAPRP, the “shrunken log2 fold change” value was determined as 1.76.

Regarding RRIRQRPPRLPRPRPRPLRAPRP, the “shrunken log2 fold change” value was found to be 0.825.

In the case of RRIRIRPPRLPRPRPRPSPLPRP, the “shrunken log2 fold change” value was -0.499.

For the sequence RRIRPRPPRLPRPRPRPRKWPRP, the “shrunken log2 fold change” value turned out to be 0.671.

In the case of RRIRIRPPRLPRPRPRPKMVPRP, the “shrunken log2 fold change” value is -0.159.

Take RRIRRRPPRLPRPRPRPWHCPRP: the “shrunken log2 fold change” value is -0.18.

Regarding RRIRVRPPRLPRPRPRPSPLPRP, the “shrunken log2 fold change” value was -0.0757.

Consider RRIRHRPPRLPRPRPRPDMFPRP, for which the “shrunken log2 fold change” value was -0.0749.

On to RRIRLRPPRLPRPRPRPQYVPRP, for which the “shrunken log2 fold change” value was 0.0564.

For RRIRTRPPRLPRPRPRPKAKPRP, the “shrunken log2 fold change” value is -0.0262.

With RRIRGRPPRLPRPRPRPLRIPRP, the “shrunken log2 fold change” value came out at 0.175.

Take RRIRGRPPRLPRPRPRPNLIPRP: the “shrunken log2 fold change” value is -0.0614.

Regarding RRIRIRPPRLPRPRPRPMVHPRP, the “shrunken log2 fold change” value was -0.0468.

With RRIRLRPPRLPRPRPRPIMQPRP, the “shrunken log2 fold change” value was -0.271.

On to RRIRGRPPRLPRPRPRPHSTPRP, for which the “shrunken log2 fold change” value stood at 0.517.

With RRIRFRPPRLPRPRPRPDKQPRP, the “shrunken log2 fold change” value is -0.0106.

RRIRHRPPRLPRPRPRPNMQPRP: the “shrunken log2 fold change” value is -0.0674.

Take RRIRSRPPRLPRPRPRPEDHPRP: the “shrunken log2 fold change” value came to 0.146.

In the case of RRIRKRPPRLPRPRPRPAAKPRP, the “shrunken log2 fold change” value is 0.0103.

With RRIRHRPPRLPRPRPRPNLPPRP, the “shrunken log2 fold change” value is -0.57.

For the sequence RRIRNRPPRLPRPRPRPWPSPRP, the “shrunken log2 fold change” value turned out to be 0.0756.

On to RRIRPRPPRLPRPRPRPEAWPRP, for which the “shrunken log2 fold change” value is -0.0196.

Turning to RRIRYRPPRLPRPRPRPQRHPRP, the “shrunken log2 fold change” value was -0.48.

For RRIRSRPPRLPRPRPRPYSKPRP, the “shrunken log2 fold change” value is -0.994.

Turning to RRIRPRPPRLPRPRPRPPMWPRP, the “shrunken log2 fold change” value is 0.412.

Turning to RRIRFRPPRLPRPRPRPRFWPRP, the “shrunken log2 fold change” value came out at 0.317.

Regarding RRIRRRPPRLPRPRPRPWCCPRP, the “shrunken log2 fold change” value was -0.0571.

With RRIRNRPPRLPRPRPRPLANPRP, the “shrunken log2 fold change” value was determined as 0.142.

Regarding RRIRVRPPRLPRPRPRPFPAPRP, the “shrunken log2 fold change” value is -0.121.

RRIRNRPPRLPRPRPRPHFVPRP: the “shrunken log2 fold change” value is -0.0954.

Turning to RRIRTRPPRLPRPRPRPVDAPRP, the “shrunken log2 fold change” value turned out to be 0.188.

For RRIRRRPPRLPRPRPRPYDKPRP, the “shrunken log2 fold change” value is -0.213.

On to RRIRRRPPRLPRPRPRPKCVPRP, for which the “shrunken log2 fold change” value is -0.29.

RRIRRRPPRLPRPRPRPKHAPRP: the “shrunken log2 fold change” value was 0.407.

As for RRIRKRPPRLPRPRPRPMYQPRP, the “shrunken log2 fold change” value is 0.056.

As for RRIRKRPPRLPRPRPRPNRVPRP, the “shrunken log2 fold change” value is -0.00538.

With RRIRFRPPRLPRPRPRPKGGPRP, the “shrunken log2 fold change” value amounted to 0.00425.

As for RRIRHRPPRLPRPRPRPFHQPRP, the “shrunken log2 fold change” value was -0.01.

As for RRIRNRPPRLPRPRPRPHQMPRP, the “shrunken log2 fold change” value was -0.114.

RRIRDRPPRLPRPRPRPVKRPRP: the “shrunken log2 fold change” value came to 0.0129.

With RRIRWRPPRLPRPRPRPICDPRP, the “shrunken log2 fold change” value stood at 0.0755.
